# PMC5700975 (2017)
# B1: Myc3-iSH2-p110β (wild type) [bovine | human] / GST-Rab5 wild-type [canine] (parent complex)
# chain 1: LYEDYTRTSQEIQMKRTAIEAFNETIKIFEEQCQTQERYSKEYIEKFKREGNETEIQRIMHNYEKLKSRISEIVDSRRRLEEDLKKQAAEYREIDKRMNSIKGGGGGGGMCFSFIMPPAMADILDIWAVDSQIASDGSIPVDFLLPTGIYIQLEVPREATISYIKQMLWKQVHNYPMFNLLMDIDSYMFACVNQTAVYEELEDETRRLCDVRPFLPVLKLVTRSCDPGEKLDSKIGVLIGKGLHEFDSLKDPEVNEFRRKMRKFSEEKILSLVGLSWMDWLKQTYPPEHEPSIPENLEDKLYGGKLIVAVHFENCQDVFSFQVSPNMNPIKVNELAIQKRLTIHGKEDEVSPYDYVLQVSGRVEYVFGDHPLIQFQYIRNCVMNRALPHFILVECCKIKKMYEQEMIAIEAAINRNSSNLPLPLPPKKTRIISHVWENNNPFQIVLVKGNKLNTEETVKVHVRAGLFHGTELLCKTIVSSEVSGKNDHIWNEPLEFDINICDLPRMARLCFAVYAVLDKVKTKKSTKTINPSKYQTIRKAGKVHYPVAWVNTMVFDFKGQLRTGDIILHSWSSFPDELEEMLNPMGTVQTNPYTENATALHVKFPENKKQPYYYPPFDKIIEKAAEIASSDSANVSSRGGKKFLPVLKEILDRDPLSQLCENEMDLIWTLRQDCREIFPQSLPKLLLSIKWNKLEDVAQLQALLQIWPKLPPREALELLDFNYPDQYVREYAVGCLRQMSDEELSQYLLQLVQVLKYEPFLDCALSRFLLERALGNRRIGQFLFWHLRSEVHIPAVSVQFGVILEAYCRGSVGHMKVLSKQVEALNKLKTLNSLIKLNAVKLNRAKGKEAMHTCLKQSAYREALSDLQSPLNPCVILSELYVEKCKYMDSKMKPLWLVYNNKVFGEDSVGVIFKNGDDLRQDMLTLQMLRLMDLLWKEAGLDLRMLPYGCLATGDRSGLIEVVSTSETIADIQLNSSNVAAAAAFNKDALLNWLKEYNSGDDLDRAIEEFTLSCAGYCVASYVLGIGDRHSDNIMVKKTGQLFHIDFGHILGNFKSKFGIKRERVPFILTYDFIHVIQQGKTGNTEKFGRFRQCCEDAYLILRRHGNLFITLFALMLTAGLPELTSVKDIQYLKDSLALGKSEEEALKQFKQKFDEALRESWTTKVNWMAHTVRKDYRS
# chain 2: ANRGATRPNGPNTGNKICQFKLVLLGESAVGKSSLVLRFVKGQFHEFQESTIGAAFLTQTVCLDDTTVKFEIWDTAGQERYHSLAPMYYRGAQAAIVVYDITNEESFARAKNWVKELQRQASPNIVIALSGNKADLANKRAVDFQEAQSYADDNSLLFMETSAKTSMNVNEIFMAIAKKLPKNEPQNPGANSARGRGVDLTEPTQPTRSQCCSN
# Variants of: B1
# Assay: GST pull-down, anti-Myc immunoblot quantification; GST-Rab5 loaded with GppCp; parent: 100; read off a plot
row,Variant,percent of parent
1,chain 1 Y353A,~7 % WT
2,chain 1 L341A,~117 % WT
3,chain 1 D348R,~190 % WT

# Variants of: B1
# Assay: GST pull-down, anti-Myc immunoblot quantification; GST-Rab5 fusion proteins (10 µg) on glutathione Sepharose beads, GppCp-loaded; Myc-iSH2-p110β from transfected COS-1 lysates; parent: 100; read off a plot
row,Variant,percent of parent
1,chain 2 Q43E,~115 % WT
2,chain 2 E46A,~72 % WT
3,chain 2 L84A,~16 % WT
4,chain 2 W73A,~26 % WT
5,chain 2 R80E,~23 % WT
6,chain 2 Y81A,~8 % WT
7,chain 2 I52A,~7 % WT
8,chain 2 H82E,~12 % WT
9,chain 2 Y88A,~15 % WT
10,chain 2 R90E,~20 % WT
11,chain 2 S83A,~112 % WT
12,chain 2 F56A,~24 % WT
13,chain 2 H45A,~110 % WT
